In patent publication US11767344B2, “Pharmaceutically acceptable salts of polypeptides and methods of inhibiting the interaction between psd-95 and n-methyl-d-aspartic acid receptor (nmdar)” (BIOCELLS (BEIJING) BIOTECH CO., LTD., priority 2017, dated 2023):
Ends that are not written are not given here.

Tests used:
[1] = test system: rat MCAO model; assay: Therapeutic effect on rat MCAO model (cerebral infarction volume, TTC staining); type: in vivo
[2] = Stability analysis of P5 salt powders (HPLC area normalization); settings: powder, 10 days
Procedure: The three P5 salts in Example 3 in their powder form were subjected to treatments with irradiation (3000 Lx)+ultraviolet (UV), high temperature (60° C.), and high humidity (75% RH) for 10 days. After the treatments, the powders were dissolved in water to prepare a solution at a concentration of 2 mg/ml. 10 μl of each solution was accurately measured and injected into a liquid chromatograph, and the chromatograms were recorded. Relevant substances were calculated according to the area normalization method to analyze the content and the number of impurity species.
(§1) Mobile phase: A 0.065% TFA-water; B 0.05% TFA-ACN
(§2) Detection wavelength λ=220 nm; flow rate V=1.0 ml/min; temperature T=36° C.
Injection volume Inj=10 ul
(§3) Gradient conditions: 0-30 min, B %=5-65%

[3] = Stability analysis of P5 salt solutions (HPLC area normalization); settings: aqueous solution 2 mg/ml, irradiation (3000 Lx), 10 days
Procedure: The solutions were subjected to treatments with irradiation (3000 Lx) and high temperature (60° C.) for 10 days. After the treatments, 10 μl of each solution was accurately measured and injected into a liquid chromatograph, and the chromatograms were recorded. The relevant substances were calculated according to the area normalization method to analyze the content and the number of impurity species.
high performance liquid chromatograph (Agilent, 1260 EZChrom); chromatographic column (Agilent, ZORBAX 300SB-C18 (4.6*250 mm, 5 μm) SN: USHH008416); analytical balance (Sartoris, BT25S); filter membrane (Millipore, 0.45 μm PTFE); acetonitrile (MREDA); water (Aqua); TFA (MREDA); and comprehensive drug stability test box (three-box type) (Shanghai Zuocheng Experimental Instrument Co. Ltd, item no. SHH-3SDT).
as §1, §2
Injection volume Inj=10 μl
as §3

[4] = irradiation (3000 Lx) + ultraviolet

P5-TFA: trifluoroacetate salt of chimeric peptide P5 (YGRKKRRQRRRYEKLLDTEI) (also: trifluoroacetate salt)
cerebral infarction volume as compared with the model group ([1]; 10 mg/kg tail vein injection 1 hour after ischemia, 24 h after administration, p<0.01): significantly reduced | effect in reducing cerebral infarction volume as compared with positive control drug NBP ([1]; 10 mg/kg vs NBP 2.5 mg/kg, tail vein injection 1 hour after ischemia, p<0.05): significantly superior | Number of impurity species ([2]; high humidity (75% RH)): 1 | Percentage of main peak area ([2]; high humidity (75% RH)): 99.73% | Number of impurity species ([2]; high temperature (60° C.)): 3 | Percentage of main peak area ([2]; high temperature (60° C.)): 99.56% | Number of impurity species [2, 4]: 6 | Percentage of main peak area [2, 4]: 98.34% | Number of impurity species [3]: 10 | Percentage of main peak area [3]: 97.28%
